US9327008B2, “Cell-permeant peptide-based inhibitor of kinases” (Purdue Research Foundation, priority 2008, dated 2016)

Key:
Type in all cases: biochemical
Abl = biological target: T1, Abl (Homo sapiens, UniProt P00519); test: Millipore radiometric kinase activity assay, Abl (h)
T1 construct: purchased Millipore (assay service)
Experimental: (§1) A commercial radiometric assay service (Millipore, Billerica, Mass.) was used to test the specificity and potency of peptides containing a coupled transduction domain and therapeutic domain, hereinafter “complete peptides”). In these assays, if the kinase is not inhibited by an inhibitor peptide, a positively charged substrate is phosphorylated with a radiolabeled phosphate group from an ATP.
(§2) In a final reaction volume of 25 μL, Abl (h) (5-10 mU) is incubated with 8 mM MOPS pH 7.0, 0.2 mM EDTA, 50 μM […] [SEQ ID NO: 48], 10 mM MgAcetate and [γ-^33P-ATP] (specific activity approx. 500 cpm/pmol, concentration as required). The reaction is initiated by the addition of the MgATP mix. After incubation for 40 minutes at room temperature, the reaction is stopped by the addition of 5 μL of a 3% phosphoric acid solution. 10 μL of the reaction is then spotted onto a P30 filtermat and washed three times for 5 minutes in 75 mM phosphoric acid and once in methanol prior to drying and scintillation counting.
(§3) IC50 values for inhibitor peptides were determined using Millipore's IC50Profiler Express service. The IC50 value was estimated from a 10-point curve of one-half log dilutions. For peptides tested for specificity, the concentration of the peptides that inhibited approximately 95% of MK2 activity was chosen to profile against a battery of kinases related to MK2, cell viability, or human disease from MilliporeKinaseProfiler service. In both assays, compounds were supplied in dimethylsulfoxide (DMSO). Every kinase activity measurement was conducted in duplicate.
(§4) Therapeutic inhibitor peptides were assayed for activity against human kinases related to MK2, cell viability, or human disease. The assays were performed using concentrations of therapeutic inhibitor peptides that yielded 2% to 8% of normal MK2 activity. Error is reported as the standard deviation between 2 samples, and “c” is rat AMPK whereas all other kinases used are human kinases.

Syk = biological target: T2, Syk (Homo sapiens, UniProt P43405); test: Millipore radiometric kinase activity assay, Syk (h)
T2 construct: purchased Millipore (radiometric assay service)
Experimental: as §1
In a final reaction volume of 25 μL, Syk (h) (5-10 mU) is incubated with 50 mM Tris pH 7.5, 0.1 mM EGTA, 0.1 mM Na3VO4, 0.1% β-mercaptoethanol, 0.1 mg/mL poly(Glu, Tyr) 4:1, 10 mM MgAcetate and [γ-^33PATP] (specific activity approx. 500 cpm/pmol, concentration as required). The reaction is initiated by the addition of the MgATP mix. After incubation for 40 minutes at room temperature, the reaction is stopped by the addition of 5 μL of a 3% phosphoric acid solution. 10 μL of the reaction is then spotted onto a Filtermat A and washed three times for 5 minutes in 75 mM phosphoric acid and once in methanol prior to drying and scintillation counting.
as §3, §4

PKG1β = biological target: T3, PKG1β (Homo sapiens, UniProt Q13976); test: Millipore radiometric kinase activity assay, PKG1β (h)
T3 construct: purchased Millipore (radiometric assay service)
T3 sequence (Q13976 1-686 isoform Q13976-2): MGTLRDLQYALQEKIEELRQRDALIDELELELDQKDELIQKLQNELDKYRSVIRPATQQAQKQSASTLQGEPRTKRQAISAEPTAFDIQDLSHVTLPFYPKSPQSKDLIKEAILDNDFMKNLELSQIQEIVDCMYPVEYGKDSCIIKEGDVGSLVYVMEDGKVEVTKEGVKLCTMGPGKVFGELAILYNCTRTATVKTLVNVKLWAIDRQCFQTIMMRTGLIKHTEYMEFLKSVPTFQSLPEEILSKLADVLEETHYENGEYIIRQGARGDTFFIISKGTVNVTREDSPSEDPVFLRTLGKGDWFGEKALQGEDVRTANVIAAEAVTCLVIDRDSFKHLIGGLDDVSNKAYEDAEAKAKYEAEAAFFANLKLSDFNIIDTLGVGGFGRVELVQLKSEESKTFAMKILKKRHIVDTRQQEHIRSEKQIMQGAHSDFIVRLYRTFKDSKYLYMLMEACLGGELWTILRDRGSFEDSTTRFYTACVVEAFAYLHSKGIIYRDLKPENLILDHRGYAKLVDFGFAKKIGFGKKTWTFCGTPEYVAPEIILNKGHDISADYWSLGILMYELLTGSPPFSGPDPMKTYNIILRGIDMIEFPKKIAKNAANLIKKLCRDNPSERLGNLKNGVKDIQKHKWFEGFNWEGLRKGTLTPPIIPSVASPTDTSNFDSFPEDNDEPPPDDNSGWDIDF
Experimental: as §1
as §2, with “μL, PKG1β” for “μL, Abl”, “EDTA, 10 μM cGMP, 200” for “EDTA, 50”, “NO: 62],” for “NO: 48],”
as §3, §4

CDK1/cyclinB = biological target: T4, CDK1/cyclinB (Homo sapiens, UniProt P06493); test: Millipore radiometric kinase activity assay, CDK1/cyclinB (h)
T4 construct: purchased Millipore (assay service)
Experimental: as §1
In a final reaction volume of 25 μL, CDK1/cyclinB (h) (5-10 mU) is incubated with 8 mM MOPS pH 7.0, 0.2 mM EDTA, 0.1 mg/mL histone H1, 10 mM MgAcetate and [γ-^33P-ATP] (specific activity approx. 500 cpm/pmol, concentration as required). The reaction is initiated by the addition of the MgATP mix. After incubation for 40 minutes at room temperature, the reaction is stopped by the addition of 5 μL of a 3% phosphoric acid solution. 10 μL of the reaction is then spotted onto a P30 filtermat and washed three times for 5 minutes in 75 mM phosphoric acid and once in methanol prior to drying and scintillation counting.
as §3, §4

Lck = biological target: T5, Lck (Homo sapiens, UniProt P06239); test: Millipore radiometric kinase activity assay, Lck (h)
T5 construct: purchased Millipore (assay service)
Description: A commercial radiometric assay service (Millipore, Billerica, Mass.) was used to test the specificity and potency of peptides containing a coupled transduction domain and therapeutic domain, hereinafter “complete peptides”). In these assays, if the kinase is not inhibited by an inhibitor peptide, a positively charged substrate is phosphorylated with a radiolabeled phosphate group from an ATP. […] The reaction is initiated by the addition of the MgATP mix. […] IC50 values for inhibitor peptides were determined using Millipore's IC50Profiler Express service. The IC50 value was estimated from a 10-point curve of one-half log dilutions. […] In both assays, compounds were supplied in dimethylsulfoxide (DMSO). Every kinase activity measurement was conducted in duplicate. Therapeutic inhibitor peptides were assayed for activity against human kinases related to MK2, cell viability, or human disease. […] Error is reported as the standard deviation between 2 samples, and “c” is rat AMPK whereas all other kinases used are human kinases.

T5 sequence (P06239 whole entry): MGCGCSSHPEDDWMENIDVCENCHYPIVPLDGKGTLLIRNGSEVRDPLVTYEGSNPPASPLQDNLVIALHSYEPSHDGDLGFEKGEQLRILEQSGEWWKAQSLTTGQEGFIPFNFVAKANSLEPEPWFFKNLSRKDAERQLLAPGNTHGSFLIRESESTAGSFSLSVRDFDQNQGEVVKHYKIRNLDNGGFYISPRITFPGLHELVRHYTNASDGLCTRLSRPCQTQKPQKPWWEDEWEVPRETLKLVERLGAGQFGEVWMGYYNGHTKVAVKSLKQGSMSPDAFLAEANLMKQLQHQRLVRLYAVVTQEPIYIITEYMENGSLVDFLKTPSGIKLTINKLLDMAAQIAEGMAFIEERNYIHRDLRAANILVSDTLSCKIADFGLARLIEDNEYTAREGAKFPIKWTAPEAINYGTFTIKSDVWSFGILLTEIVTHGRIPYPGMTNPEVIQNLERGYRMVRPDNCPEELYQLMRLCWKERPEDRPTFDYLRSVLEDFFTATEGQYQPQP
T1 sequence (P00519 whole entry): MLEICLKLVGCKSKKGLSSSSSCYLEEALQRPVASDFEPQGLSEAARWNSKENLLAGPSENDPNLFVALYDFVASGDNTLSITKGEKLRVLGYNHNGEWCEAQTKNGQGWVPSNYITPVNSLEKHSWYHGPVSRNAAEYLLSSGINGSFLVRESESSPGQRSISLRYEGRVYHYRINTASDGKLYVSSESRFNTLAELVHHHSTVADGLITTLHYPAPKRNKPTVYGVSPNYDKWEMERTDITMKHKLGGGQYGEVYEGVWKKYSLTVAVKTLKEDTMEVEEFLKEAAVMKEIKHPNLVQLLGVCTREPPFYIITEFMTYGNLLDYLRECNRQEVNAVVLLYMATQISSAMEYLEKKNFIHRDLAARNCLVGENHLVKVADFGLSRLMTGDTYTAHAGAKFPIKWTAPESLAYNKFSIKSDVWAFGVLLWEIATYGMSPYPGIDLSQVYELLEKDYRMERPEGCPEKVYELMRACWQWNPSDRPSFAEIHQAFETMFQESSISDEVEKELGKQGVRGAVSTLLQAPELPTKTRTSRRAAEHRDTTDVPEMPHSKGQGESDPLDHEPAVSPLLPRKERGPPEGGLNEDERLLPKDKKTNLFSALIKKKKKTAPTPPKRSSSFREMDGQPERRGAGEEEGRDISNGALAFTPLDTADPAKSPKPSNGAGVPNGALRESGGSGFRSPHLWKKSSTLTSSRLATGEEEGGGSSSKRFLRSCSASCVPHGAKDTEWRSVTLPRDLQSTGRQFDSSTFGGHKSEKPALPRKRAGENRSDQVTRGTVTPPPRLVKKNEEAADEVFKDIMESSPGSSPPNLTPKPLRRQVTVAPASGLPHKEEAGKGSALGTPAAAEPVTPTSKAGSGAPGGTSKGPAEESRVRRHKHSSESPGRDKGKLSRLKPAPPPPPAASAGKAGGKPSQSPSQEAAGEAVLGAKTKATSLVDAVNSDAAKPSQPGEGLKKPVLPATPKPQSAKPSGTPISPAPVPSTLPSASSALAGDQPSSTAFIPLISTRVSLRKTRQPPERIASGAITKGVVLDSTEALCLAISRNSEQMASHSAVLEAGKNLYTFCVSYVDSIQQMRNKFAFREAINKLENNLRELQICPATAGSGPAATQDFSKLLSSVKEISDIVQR
T4 sequence (P06493 whole entry): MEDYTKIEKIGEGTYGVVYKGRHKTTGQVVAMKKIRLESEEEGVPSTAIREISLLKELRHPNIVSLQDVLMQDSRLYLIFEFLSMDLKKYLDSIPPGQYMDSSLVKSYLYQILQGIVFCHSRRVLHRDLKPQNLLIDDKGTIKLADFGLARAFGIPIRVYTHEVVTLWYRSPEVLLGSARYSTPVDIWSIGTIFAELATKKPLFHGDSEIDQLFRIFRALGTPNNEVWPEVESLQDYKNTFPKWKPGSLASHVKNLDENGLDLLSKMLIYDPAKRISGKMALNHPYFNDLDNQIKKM
T4 sequence (P14635 whole entry partner): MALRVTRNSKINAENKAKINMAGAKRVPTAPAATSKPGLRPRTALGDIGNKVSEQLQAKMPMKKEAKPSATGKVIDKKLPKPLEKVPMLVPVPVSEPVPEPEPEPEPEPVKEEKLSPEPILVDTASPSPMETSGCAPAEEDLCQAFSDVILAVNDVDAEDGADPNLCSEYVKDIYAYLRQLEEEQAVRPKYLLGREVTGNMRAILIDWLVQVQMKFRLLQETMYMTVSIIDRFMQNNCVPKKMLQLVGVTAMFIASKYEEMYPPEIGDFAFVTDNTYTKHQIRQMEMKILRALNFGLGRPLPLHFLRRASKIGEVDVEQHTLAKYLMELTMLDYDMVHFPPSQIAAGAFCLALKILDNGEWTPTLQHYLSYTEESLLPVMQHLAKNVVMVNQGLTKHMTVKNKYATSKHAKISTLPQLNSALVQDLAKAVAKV

| Sequence | Abl Kinase Activity (%) (+SD %) (Abl; peptide 30 μM) | Abl Kinase Activity (%) (+SD %) (Abl; peptide 100 μM) | Syk Kinase Activity (%) (+SD %) (Syk; peptide 30 μM) | Syk Kinase Activity (%) (+SD %) (Syk; peptide 100 μM) | PKG1β Kinase Activity (%) (+SD %) (PKG1β; peptide 30 μM) | PKG1β Kinase Activity (%) (+SD %) (PKG1β; peptide 100 μM) | CDK1/cyclin B Kinase Activity (%) (+SD %) (CDK1/cyclinB; peptide 30 μM) | CDK1/cyclin B Kinase Activity (%) (+SD %) (CDK1/cyclinB; peptide 100 μM) | Lck Kinase Activity (%) (+SD %) (Lck; peptide 30 μM) | Lck Kinase Activity (%) (+SD %) (Lck; peptide 100 μM) |
| --- | --- | --- | --- | --- | --- | --- | --- | --- | --- | --- |
| WLRRIKAWLRRIKALNRQLGVAA | 24 (5) % | 41 (2) % | 19 (3) % | 38 (9) % | 15 (4) % | 15 (1) % | 17 (0) % | 36 (2) % | 130 (1) % | 493 (7) % |
| KAFAKLAARLYRKALARQLGVAA |  | 55 (0) % |  | 4 (4) % |  | 24 (5) % |  | 55 (3) % |  | 847 (29) % |
